Positions count from the first letter of the chain named.
B1: 5G4H10G5-MMAF (antibody, DAR 8, V domains shown)
VH: EVQLVESGGDLVQPGGSLKLFCAASGFTFSTYGLSWVRQTPDKRLELVATITNNDGSAYYPDSVKGRFTISRDKAKNTLFLQMTSLKSEDTAMYYCARETGFGSSYLFDYWGQGTLVTVSA
VL: NIVMTQTPKFLLVSAGDRVTITCKASQSVSNDVAWYQQKPGQSPKLLIYFATNRYTGVPNRFTGSGYGTEFTFTISSVQAEDLAVYFCQQDYSSPTFGGGTKLEIK
modifications: MC-MMAF on cysteines after TCEP reduction, sites not stated
B2: 28D4E6A9-MMAF (antibody, DAR 8, V domains shown)
VH: DVQLVESGGGLVRPGGSLKLSCAASGFTFSNYVMSWARQSPEKRLEWVAEISTGGSHTYYSDTVTGRFTISRDNAKKALYLEMSSLRSEDTAIYYCIMFYYGSSYSMDYWGQGTSVTVSS
VL: DIQMTQSTSSLSASLGDRITISCRASQDIRNYLNWYQQKPDGTVKLLIYHTSRLHSGVPSRFSGSGSGTDYSLTISNLEQEDIATYFCQQGDTLPLTFGAGTRLELK
modifications: MC-MMAF on cysteines after TCEP reduction, sites not stated
B3: 39A11G5F2-MMAF (antibody, DAR 8, V domains shown)
VH: QVQLQQSGAELMKPGASMRLSCKATGYTFTGYWLEWIKRRPGHGLEWIGEILPGRGSTNYNEKFKGKATFTAETSSNTAYMQLTSLTTEDSAIYYCARGGRDFDNWGQGTTLTVSS
VL: DIQMTQSTSSLSASLGDRVTISCSASQGINNHLNWYQQKPDGTVKLLIYYTSSLHSGVPSRFSGSGSGTDYSLTISNLEPEDIAIYYCQQFSKLPYTFGGGTKVEMK
modifications: MC-MMAF on cysteines after TCEP reduction, sites not stated
B4: 52C9E9F6-MMAF (antibody, DAR 8, V domains shown)
VH: QVQLQQSGAELMKPGASVKLSCKATGYTFTGYWIEWIKQRPGHGLEWIGEILPGRGSTDYNEKFKGKATFTADTSSNTAYMQLSSLTTEDSAIYYCTRGRLDFTYWGQGTLVTVSA
VL: B3 VL with S7T, N30R, H32Y, I85T, F91Y, L94V, Y96W, V104L, M106I
modifications: MC-MMAF on cysteines after TCEP reduction, sites not stated
B5: 12B12C7C3-MMAF (antibody, DAR 8, V domains shown)
VH: DVQLVESGGGLVQPGGSRKLSCAASGFTFSNFGMHWVRQAPEKGLEWVAYISSGSTSFYYADTVKGRFTISRDNPKNTLFLQMTSLRSEDTAMYYCSRTNSLLRGFFDAWGAGTTVTVSS
VL: DIVLTQSPASLAVSLGQRATISCRASQSVSSSSYTYLHWYQQKPGQPPKLLIKSASNLESGVPARFSGTGSGTDFTLNIHPVEEEDTATYYCQHSWEIPLTFGAGTKLELK
modifications: MC-MMAF on cysteines after TCEP reduction, sites not stated
B6: 106D5G3D10-MMAF (antibody, DAR 8, V domains shown)
VH: EVQLVESGGGLVKPGGSLKLSCAASGFTFSDYGMHWVRQAPEKGLEWVGYISSGTYVVYYADTVKGRFTISRDNAKNTLFLQMTSLRSEDTAIYYCSTYGSNPFDYWGQGTTLTVSS
VL: QLVLTQSPAIMSASPGEKVTITCSATSSVSSMHWFQQKPVTSPKLWIYSTSNLASGVPTRFSGSGSGTSYSLTISRMEAEDAATYYCQQRSGYPPIFTFGSGTKLEIK
modifications: MC-MMAF on cysteines after TCEP reduction, sites not stated
B7: 99E12C7H1-MMAF (antibody, DAR 8, V domains shown)
VH: QIQLVQSGPELKKPGETVKISCKPSGYTFTAYGLSWVKQAPGQGFQWMGWINTYSGVPTYTDDFKGRFAFSLETSAGTASLQITNLKNEDTATYFCARSSIPPFEYWGPGTTLTVSS
VL: SFVMTQSPKFLLVSVGDRVTITCKASQSVSNDVAWYQQKPGQPPRVLIYFASNRYTGVPDRFTGSGYGTDFTFTISTVQAEDLALYFCQQDYSSPWTFGGGTKLEIK
modifications: MC-MMAF on cysteines after TCEP reduction, sites not stated
B8: 37H9C5G2-MMAF (antibody, DAR 8, V domains shown)
VH: QVQLQQSDAELVRPGASVKMSCKVSGYTFTDHTIHWMKQRPEQGLEWIGYIYPRDGSGTYNEKFKGKATLTADKSSSTAYMQLNSLTSEDSAVYFCARDGSSHYWYFDVWGTGTTVTVSS
VL: DIQMTQSPASLSASVGETVTITCRASEIIYNYLAWYQQKQGKSPQLLVYNAKTLAEGVPSRFSGSYSGTQFSLNINSLQSEDFGIYYCQHHHDTPLTFGAGTKLDLK
modifications: MC-MMAF on cysteines after TCEP reduction, sites not stated
B9: 36A10D8B12-MMAF (antibody, DAR 8, V domains shown)
VH: DVQLQESGPGMVKPSQSLSLTCTVTGYSITSGYDWHWIRHFPGNKLEWMGYISYSGNTNYNPSLKSRISITHNTSKNHFFLRLNSVTTEDTATYYCARGYGNWDAMDYWGQGTSVTVSS
VL: DIVMTQSQKFMSTSVGDRVSVTCKASQIVDTNVAWYQQKPGQSPKALISSASYRYSGVPDRFTGSGSGTDFTLTISNVQSEDLAEYFCQQYNSYPLTFGAGTKLELT
modifications: MC-MMAF on cysteines after TCEP reduction, sites not stated
B10: 103E2E9C2-MMAF (antibody, DAR 8, V domains shown)
VH: EVQLQQSGPVLVKPGASVKMSCEASGYSFIDYYMSWVKQSRGRSLEWIGVFNPYSGEIIYNQKFKGKATLTVDKSSSTAYMELSSLTSEDSGVYSCARLRISYYAIDYWGQGTSVAVSS
VL: ENVLTQSPAIMSASPGEKVTMTCRATSSVSSGHFHWYQQKSGASPKVWIYSTSNLASGVPARFSGSGSGTSFSLTISSVEAEDVATYFCQQYSGYPLTFGGGTKLEIK
modifications: MC-MMAF on cysteines after TCEP reduction, sites not stated
B11: Chimeric Antibody 28D4-MMAE (antibody, human IgG1, DAR about 3, V domains shown)
VH: B2 VH
VL: B2 VL
modifications: MC-VC-PAB-MMAE on cysteines after TCEP reduction, sites not stated
B12: Chimeric Antibody 12B12-MMAE (antibody, human IgG1, DAR about 3, V domains shown)
VH: B5 VH
VL: B5 VL
modifications: MC-VC-PAB-MMAE on cysteines after TCEP reduction, sites not stated
B13: Chimeric Antibody 12B12-DM1 (antibody, human IgG1, DAR about 3, V domains shown)
VH: B5 VH
VL: B5 VL
modifications: SMCC-DM1, sites not stated
B14: Chimeric Antibody 28D4 (antibody, V domains shown)
VH: B2 VH
VL: B2 VL
B15: Chimeric Antibody 12B12 (antibody, V domains shown)
VH: B5 VH
VL: B5 VL

What follows are binders tested against T1, human TPBG (full length, on cells) (human, UniProt Q13641 32-420) (assay: cell-based or functional assay).
T1 sequence (looked up): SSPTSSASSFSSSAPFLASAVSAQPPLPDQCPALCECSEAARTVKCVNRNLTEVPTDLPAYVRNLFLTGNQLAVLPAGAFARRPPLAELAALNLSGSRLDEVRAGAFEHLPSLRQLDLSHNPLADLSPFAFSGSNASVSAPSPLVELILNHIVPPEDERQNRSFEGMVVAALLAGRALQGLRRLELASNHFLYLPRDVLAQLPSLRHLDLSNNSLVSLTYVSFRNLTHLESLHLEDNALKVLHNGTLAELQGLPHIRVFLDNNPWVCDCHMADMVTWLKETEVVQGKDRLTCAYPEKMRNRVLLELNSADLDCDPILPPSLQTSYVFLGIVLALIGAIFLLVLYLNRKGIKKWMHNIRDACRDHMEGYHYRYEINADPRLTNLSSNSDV

Binder | EC50 of cytotoxicity on TPBG-positive NCI-H1568 cells (CellTiter-Glo) [nM]
B1 | 0.626
B2 | 0.038
B3 | 0.285
B4 | 1.49
B5 | 0.042
B6 | 0.208
B7 | 0.844
B8 | 0.12
B9 | 0.066
B10 | 0.135

Target: T1, human TPBG (full length, on cells)
Assay: cell-based or functional assay
Remark: another data set of the same source

Binder | IC50 of cytotoxicity on TPBG-positive NCI-H1299 cells (CellTiter-Glo) [nM] | IC50 of cytotoxicity on TPBG-positive NCI-H1568 cells (CellTiter-Glo) [nM]
B11 | 369 | > 100
B12 | > 100 | > 100
B13 | 10.4 | 1.27

Target: T1, human TPBG (full length, on cells)
Assay: cell-based or functional assay
Remark: another data set of the same source

Binder | IC50 of cytotoxicity on recombinant 293-hTPBG cells (CellTiter-Glo) [nM]
B11 | 0.08
B14 | 1.14
B12 | 0.033
B13 | 0.154
B15 | 13.6
